The values that follow come from patent US20120178908A1 (Novo Nordisk, published 2012).

Residue numbers refer to the chain shown, from its start. Names and notes keep the numbering of the source.

The labels stand for the following.
T1: TLT-1 18-188 relipidated in 20:80 PS:PC vesicles (human) (UniProt Q86YW5)
T1 sequence: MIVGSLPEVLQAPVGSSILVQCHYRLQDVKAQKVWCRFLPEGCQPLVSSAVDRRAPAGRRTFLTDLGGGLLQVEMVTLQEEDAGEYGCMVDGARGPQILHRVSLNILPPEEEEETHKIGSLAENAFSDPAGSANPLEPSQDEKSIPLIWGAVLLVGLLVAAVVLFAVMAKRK

T2: TLT-1 receptor on the surface of activated human platelets (human) (UniProt Q86YW5)
T2 sequence: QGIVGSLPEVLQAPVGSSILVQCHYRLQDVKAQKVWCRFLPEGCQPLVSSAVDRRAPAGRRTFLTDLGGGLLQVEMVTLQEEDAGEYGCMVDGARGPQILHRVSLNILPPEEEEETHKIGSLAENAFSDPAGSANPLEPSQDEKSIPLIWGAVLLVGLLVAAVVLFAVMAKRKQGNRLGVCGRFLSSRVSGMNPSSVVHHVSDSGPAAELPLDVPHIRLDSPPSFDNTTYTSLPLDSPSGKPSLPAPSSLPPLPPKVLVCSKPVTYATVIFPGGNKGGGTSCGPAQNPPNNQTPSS

B1: Fab 0012-LC-L6-TF;VH-CH1-HPC4 (protein)
light chain-linker-TF: DVVMTQTPLSLPVSLGDQASISCRSSQSLVHRNGNTYFHWCLQKPGQSPKLLIYKVSNRFSGVPDRFSGSGSGTDFTLKISRVEAEDLGVYFCSQSTHVPYTFGGGTKLEIKRTVAAPSVFIFPPSDEQLKSGTASVVCLLNNFYPREAKVQWKVDNALQSGNSQESVTEQDSKDSTYSLSSTLTLSKADYEKHKVYACEVTHQGLSSPVTKSFNRGECGGGGSGGGGSGSGGGGSGGGGSGGGGSSGTTNTVAAYNLTWKSTNFKTILEWEPKPVNQVYTVQISTKSGDWKSKCFYTTDTECDLTDEIVKDVKQTYLARVFSYPAGNVESTGSAGEPLYENSPEFTPYLETNLGQPTIQSFEQVGTKVNVTVEDERTLVRRNNTFLSLRDVFGKDLIYTLYYWKSSSSGKKTAKTNTNEFLIDVDKGENYCFSVQAVIPSRTVNRKSTDSPVECMGQEKGEFRE
VH-CH1-HPC4: EVKLLESGGGLVQPGGSLKLSCAASGFDFSRYWMTWVRQAPGKGLEWIGEINPDSSTINYTPSLKDKFIISRDNAKNTLYLQMSEVRSEDTALYYCASGVFTSWGQGTLVTVSAASTKGPSVFPLAPCSRSTSESTAALGCLVKDYFPEPVTVSWNSGALTSGVHTFPAVLQSSGLYSLSSVVTVPSSSLGTKTYTCNVDHKPSNTKVDKRVESKEDQVDPRLIDGK
B2: Fab 0012-LC-L7-TF;VH-CH1-HPC4 (protein)
light chain-linker-TF: DVVMTQTPLSLPVSLGDQASISCRSSQSLVHRNGNTYFHWCLQKPGQSPKLLIYKVSNRFSGVPDRFSGSGSGTDFTLKISRVEAEDLGVYFCSQSTHVPYTFGGGTKLEIKRTVAAPSVFIFPPSDEQLKSGTASVVCLLNNFYPREAKVQWKVDNALQSGNSQESVTEQDSKDSTYSLSSTLTLSKADYEKHKVYACEVTHQGLSSPVTKSFNRGECGGGGSGGGGSGGGGSGSGGGGSGGGGSGGGGSSGTTNTVAAYNLTWKSTNFKTILEWEPKPVNQVYTVQISTKSGDWKSKCFYTTDTECDLTDEIVKDVKQTYLARVFSYPAGNVESTGSAGEPLYENSPEFTPYLETNLGQPTIQSFEQVGTKVNVTVEDERTLVRRNNTFLSLRDVFGKDLIYTLYYWKSSSSGKKTAKTNTNEFLIDVDKGENYCFSVQAVIPSRTVNRKSTDSPVECMGQEKGEFRE
VH-CH1-HPC4: B1 VH-CH1-HPC4
B3: Fab 0012-LC-L8-TF;VH-CH1-HPC4 (protein)
light chain-linker-TF: DVVMTQTPLSLPVSLGDQASISCRSSQSLVHRNGNTYFHWCLQKPGQSPKLLIYKVSNRFSGVPDRFSGSGSGTDFTLKISRVEAEDLGVYFCSQSTHVPYTFGGGTKLEIKRTVAAPSVFIFPPSDEQLKSGTASVVCLLNNFYPREAKVQWKVDNALQSGNSQESVTEQDSKDSTYSLSSTLTLSKADYEKHKVYACEVTHQGLSSPVTKSFNRGECGGGGSGGGGSGGGGSGGGGSGSGGGGSGGGGSGGGGSSGTTNTVAAYNLTWKSTNFKTILEWEPKPVNQVYTVQISTKSGDWKSKCFYTTDTECDLTDEIVKDVKQTYLARVFSYPAGNVESTGSAGEPLYENSPEFTPYLETNLGQPTIQSFEQVGTKVNVTVEDERTLVRRNNTFLSLRDVFGKDLIYTLYYWKSSSSGKKTAKTNTNEFLIDVDKGENYCFSVQAVIPSRTVNRKSTDSPVECMGQEKGEFRE
VH-CH1-HPC4: B1 VH-CH1-HPC4
B4: Fab 0012-LC-L9-TF;VH-CH1-HPC4 (protein)
light chain-linker-TF: DVVMTQTPLSLPVSLGDQASISCRSSQSLVHRNGNTYFHWCLQKPGQSPKLLIYKVSNRFSGVPDRFSGSGSGTDFTLKISRVEAEDLGVYFCSQSTHVPYTFGGGTKLEIKRTVAAPSVFIFPPSDEQLKSGTASVVCLLNNFYPREAKVQWKVDNALQSGNSQESVTEQDSKDSTYSLSSTLTLSKADYEKHKVYACEVTHQGLSSPVTKSFNRGECGGGGSGGGGSGGGGSGGGGSGGGGSGSGGGGSGGGGSGGGGSSGTTNTVAAYNLTWKSTNFKTILEWEPKPVNQVYTVQISTKSGDWKSKCFYTTDTECDLTDEIVKDVKQTYLARVFSYPAGNVESTGSAGEPLYENSPEFTPYLETNLGQPTIQSFEQVGTKVNVTVEDERTLVRRNNTFLSLRDVFGKDLIYTLYYWKSSSSGKKTAKTNTNEFLIDVDKGENYCFSVQAVIPSRTVNRKSTDSPVECMGQEKGEFRE
VH-CH1-HPC4: B1 VH-CH1-HPC4
B5: Fab AP-3-LC-L4a-hTF.1-219; VH-CH1-HPC4 (other)
light: DIVMTQAAPSVPVTPGESVSISCRSSRSLLHSNGNTYLCWFLQRPGQSPQLLIYRMSNLASGVPDRFSGSGSGTAFTLRISRVEAEDVGVYYCMQHLEYPFTFGSGTKLEIKRTVAAPSVFIFPPSDEQLKSGTASVVCLLNNFYPREAKVQWKVDNALQSGNSQESVTEQDSKDSTYSLSSTLTLSKADYEKHKVYACEVTHQGLSSPVTKSFNRGECGSGGGGSGGGGSGGGGSSGTTNTVAAYNLTWKSTNFKTILEWEPKPVNQVYTVQISTKSGDWKSKCFYTTDTECDLTDEIVKDVKQTYLARVFSYPAGNVESTGSAGEPLYENSPEFTPYLETNLGQPTIQSFEQVGTKVNVTVEDERTLVRRNNTFLSLRDVFGKDLIYTLYYWKSSSSGKKTAKTNTNEFLIDVDKGENYCFSVQAVIPSRTVNRKSTDSPVECMGQEKGEFRE
heavy: QVQLQQSGAELVRPGTSVKISCKASGYTFTNYWLGWVKQRPGHGLEWIGDIYPGGGYNKYNENFKGKATLTADTSSSTAYMQLSSLTSEDSAVYFCAREYGNYDYAMDSWGQGTSVTVSSASTKGPSVFPLAPCSRSTSESTAALGCLVKDYFPEPVTVSWNSGALTSGVHTFPAVLQSSGLYSLSSVVTVPSSSLGTKTYTCNVDHKPSNTKVDKRVESKEDQVDPRLIDGK
B6: Fab AP-3-LC.C34S-L4a-hTF.1-219; VH-CH1-HPC4 (other)
light: B5 light with C39S
heavy: B5 heavy

One test addresses T1, TLT-1 18-188 relipidated in 20:80 PS:PC vesicles (human).
Experiment: not given
Take B1: the FVII-mediated FXa generation % Activity lipidated TLT-1 amounted to 94% and the FVIIa-mediated FXa generation % Activity lipidated TLT-1 is 101%.
B2 came in with an FVII-mediated FXa generation % Activity lipidated TLT-1 of 95% and an FVIIa-mediated FXa generation % Activity lipidated TLT-1 of 98%.
On the same counts, the results for B3 are 94% and 98%.
The corresponding values for B4 are 88% and 95%.

The target in another test is T2, TLT-1 receptor on the surface of activated human platelets (human).
Experiment: not given
Consider B1, for which the FVII-mediated FXa generation % Activity activated plts (n 1) turned out to be 95% and the FVIIa-mediated FXa generation % Activity activated plts (n 1) was found to be 91%.
The corresponding values for B2 are 92% and 95%.
Consider B3, for which the FVII-mediated FXa generation % Activity activated plts (n 1) came out at 86% and the FVIIa-mediated FXa generation % Activity activated plts (n 1) was determined as 81%.
In the case of B4, the FVII-mediated FXa generation % Activity activated plts (n 1) came out at 80% and the FVIIa-mediated FXa generation % Activity activated plts (n 1) stood at 76%.

For a further test, the target named is T3, GPIIbIIIa receptor on human platelets (human, UniProt P08514 32-1039; P05106 27-788). The test can be described thus: cell-based or functional assay.
T3 sequence (P08514 32-1039, chain 1 of 2): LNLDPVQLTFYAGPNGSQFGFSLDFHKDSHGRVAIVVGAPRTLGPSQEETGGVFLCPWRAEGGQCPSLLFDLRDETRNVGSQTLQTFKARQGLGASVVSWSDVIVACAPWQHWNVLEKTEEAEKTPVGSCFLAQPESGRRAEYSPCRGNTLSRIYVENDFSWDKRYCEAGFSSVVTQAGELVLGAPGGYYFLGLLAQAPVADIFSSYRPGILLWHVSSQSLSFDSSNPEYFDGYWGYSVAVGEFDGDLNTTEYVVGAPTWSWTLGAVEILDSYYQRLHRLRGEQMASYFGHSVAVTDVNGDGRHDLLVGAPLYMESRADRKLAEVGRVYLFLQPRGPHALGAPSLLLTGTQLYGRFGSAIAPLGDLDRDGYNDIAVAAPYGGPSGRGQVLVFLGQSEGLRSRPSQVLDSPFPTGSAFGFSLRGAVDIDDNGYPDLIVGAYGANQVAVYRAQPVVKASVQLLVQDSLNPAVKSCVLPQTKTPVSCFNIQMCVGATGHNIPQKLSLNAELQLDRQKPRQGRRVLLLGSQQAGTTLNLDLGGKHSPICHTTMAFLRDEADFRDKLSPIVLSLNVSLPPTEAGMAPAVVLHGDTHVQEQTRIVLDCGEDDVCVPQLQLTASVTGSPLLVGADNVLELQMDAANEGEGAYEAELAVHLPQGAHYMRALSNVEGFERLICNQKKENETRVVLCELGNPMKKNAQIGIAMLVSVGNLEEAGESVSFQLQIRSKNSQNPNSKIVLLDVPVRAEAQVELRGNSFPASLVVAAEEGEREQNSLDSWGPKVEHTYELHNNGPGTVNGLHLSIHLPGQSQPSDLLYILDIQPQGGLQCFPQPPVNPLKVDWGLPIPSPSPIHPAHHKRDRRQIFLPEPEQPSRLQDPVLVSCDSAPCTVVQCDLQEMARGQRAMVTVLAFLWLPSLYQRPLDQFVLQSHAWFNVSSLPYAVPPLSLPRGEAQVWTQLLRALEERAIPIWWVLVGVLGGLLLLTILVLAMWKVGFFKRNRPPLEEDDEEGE
T3 sequence (P05106 27-788, chain 2 of 2): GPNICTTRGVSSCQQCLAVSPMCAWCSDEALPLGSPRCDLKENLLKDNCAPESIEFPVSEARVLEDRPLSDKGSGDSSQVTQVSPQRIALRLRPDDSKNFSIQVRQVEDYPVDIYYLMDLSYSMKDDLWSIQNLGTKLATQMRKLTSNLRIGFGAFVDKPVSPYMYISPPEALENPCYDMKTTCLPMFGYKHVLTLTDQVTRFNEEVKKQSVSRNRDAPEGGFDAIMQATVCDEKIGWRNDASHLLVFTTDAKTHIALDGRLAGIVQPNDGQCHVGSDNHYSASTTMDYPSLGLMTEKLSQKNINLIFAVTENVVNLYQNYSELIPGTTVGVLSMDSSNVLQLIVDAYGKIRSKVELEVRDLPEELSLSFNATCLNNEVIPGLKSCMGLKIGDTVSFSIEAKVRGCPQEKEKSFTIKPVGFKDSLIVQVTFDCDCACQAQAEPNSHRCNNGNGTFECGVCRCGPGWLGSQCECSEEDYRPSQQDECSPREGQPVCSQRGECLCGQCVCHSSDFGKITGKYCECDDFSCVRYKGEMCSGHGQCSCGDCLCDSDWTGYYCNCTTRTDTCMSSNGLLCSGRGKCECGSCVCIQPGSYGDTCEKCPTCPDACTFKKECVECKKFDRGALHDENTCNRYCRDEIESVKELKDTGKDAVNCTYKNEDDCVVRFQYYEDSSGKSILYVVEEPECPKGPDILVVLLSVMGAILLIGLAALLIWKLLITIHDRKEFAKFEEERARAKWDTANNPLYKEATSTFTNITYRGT
As to B5, the “FX activation: response with resting platelets relative to activated platelets” value was ~20 % of the response with activated platelets.
As to B6, the “FX activation: response with resting platelets relative to activated platelets” value is ~20 % of the response with activated platelets.

The target in a further test is T3, GPIIbIIIa receptor on human platelets. The test can be described thus: cell-based or functional assay. The source holds these as a separate data set.
With B5, the “FVII-mediated FXa generation % Activity activated plts (n 1)” value was 218% and the “FVIIa-mediated FXa generation % Activity activated plts (n 1)” value was found to be 164%.
On the same counts, the results for B6 are 215% and 143%.
